Experimental data as given in US20100092561A1 (published 2010).
Starred links: 1 amine or outer side, 2 acyl side, 3 side chain; linkers in the order of their positions; H or OH if unused. Non-standard residues stand in square brackets, D forms with d. No end group written: not given here. βMeF(S) = S-β-methyl-L-phenylalanine, (2S,3S)-β-methylphenylalanine, C[C@@H](c1ccccc1)[C@H](N[*:1])C(=O)[*:2]; Phe(3R-Me) = C[C@H](c1ccccc1)[C@H](N)C(=O)O

Target: NK1 receptor (rabbit)
Assay: cell-based or functional assay

Binder	biological activity relative to SP (rabbit iris sphincter contraction)	concentration at half maximal contraction (EC50), rabbit iris sphincter muscle [nM]
RPKPQQF[Phe(3R-Me)]GLM (not fully specified (C-terminus); ends and bridges not checked) [8R-(βMeF)SP]	4 fold enhancement	0.15
RPKPQQF[βMeF(S)]GLM (not fully specified (C-terminus); ends and bridges not checked) [8S-(βMeF)SP]	10 fold reduction	
RPKPQQ[Phe(3R-Me)][Phe(3R-Me)]GLM (not fully specified (C-terminus); ends and bridges not checked) [7R,8R-(βMeF)2SP]	10 fold reduction	10
